Target: T1, synthetic TAL effector (RVG-LAMP-2B-NLS-TALE) (Artificial Sequence, UniProt P14727 SEQ:1-766)
T1 chain: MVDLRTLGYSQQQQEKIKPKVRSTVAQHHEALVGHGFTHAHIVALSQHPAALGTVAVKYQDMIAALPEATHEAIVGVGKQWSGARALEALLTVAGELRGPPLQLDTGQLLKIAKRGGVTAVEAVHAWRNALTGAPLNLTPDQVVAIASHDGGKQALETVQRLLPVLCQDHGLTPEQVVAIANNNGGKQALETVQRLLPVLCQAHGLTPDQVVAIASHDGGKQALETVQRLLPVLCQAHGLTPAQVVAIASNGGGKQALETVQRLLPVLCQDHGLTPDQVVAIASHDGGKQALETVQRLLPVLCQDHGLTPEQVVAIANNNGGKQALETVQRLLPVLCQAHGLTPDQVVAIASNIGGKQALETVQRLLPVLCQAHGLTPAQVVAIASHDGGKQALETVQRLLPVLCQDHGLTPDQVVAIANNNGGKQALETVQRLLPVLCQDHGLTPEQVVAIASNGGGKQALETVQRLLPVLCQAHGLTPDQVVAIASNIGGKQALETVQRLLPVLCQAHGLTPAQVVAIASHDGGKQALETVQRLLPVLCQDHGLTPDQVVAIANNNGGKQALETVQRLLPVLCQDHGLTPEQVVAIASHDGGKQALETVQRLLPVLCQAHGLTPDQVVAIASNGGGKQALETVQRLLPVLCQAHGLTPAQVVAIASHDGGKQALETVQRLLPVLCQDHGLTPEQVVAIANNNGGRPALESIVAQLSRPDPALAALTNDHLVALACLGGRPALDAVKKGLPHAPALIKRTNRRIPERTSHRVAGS
Test: cell_activity
Details: tags: fusion to C-terminus of RVG-LAMP-2B-NLS, expressed from pcDNA3.0 in HEK-293

B1: gfaABC1D-NeuroD1 plasmid with TAL effector binding site (dsDNA)
DNA 1: TCGCTCGACGTACGCTCG
DNA 2: CGAGCGTACGTCGAGCGA
Question: With B1 as the binder, how does the binding signal read?
Answer: Its binding signal is 3 fold.

Source: patent publication US20170073382 (Nomadogen Biotechnologies Inc., published 2017)
